The results in this text go back to publication PMC11607428, “Broadly conserved FlgV controls flagellar assembly and Borrelia burgdorferi dissemination in mice” (Nature Communications, 2024).

The data set deals with the molecule itself. As to the kind of experiment: immunoblot after SDS-PAGE (higher molecular weight band); total protein lysate of WT/pcon ++flgV (PA267) B. burgdorferi, log and stationary phase, boiled in Laemmli buffer with beta-mercaptoethanol, Tris-Glycine gel, probed with anti-FlgV.

B1: FlgV (BB0268), B. burgdorferi (natural protein)
chain: MFISRELKYILLTSVSALFISAVLGLFCGLSFFTILVRSLLQFVFFFVIGLLIEYIFKKYLSNLFSTELSGNMENKPQDDKKSDKDFKENLDFQNKNSLYENSQNISSSGDFIEEVKKYKFETEDVSRGSDKNKKMSFIEDNDPKVVADAIKTLMSKKE
notes: FlgV (BB0268) of Borrelia burgdorferi B31; ORF of 480 bp; antigen for the antibody was amino acids 58-159; two predicted transmembrane helices (amino acids 13 to 35 and 40 to 57); native flgV ORF amplified from B. burgdorferi A3 genomic DNA for the overexpression plasmid; Untagged protein; Strains, plasmids and primers are in Supplementary Data 1; also called bb0268 gene product; previously …
One may read the stoichiometry N as the number of molecules, sites or subunits per partner or assembly. As for B1, the “stoichiometry N” value was found to be 2.
